Biological target: T1, GST-tagged full-length TAF15 (human, UniProt Q92804 1-592)
T1 construct: TAF15, human, full length, cloned into pGEX-6p-1; Immobilised on glutathione-Sepharose 4B in the pull-down; also called GST-TAF15; source: E. coli BL21, purified (Glutathione Sepharose)
Experiment: pull-down; GST pull-down: GST-TAF15 or GST alone immobilised on glutathione-Sepharose 4B, His-NOP58 added, 1 h at 4 °C in 50 mM Tris-HCl pH 7.5, 150 mM NaCl, 10 mM MgCl2, 10% glycerol, 1% Triton X-100, 1 mM DTT, 1% BSA; western blot; also with in vitro transcribed INHEG
Settings: both partners purified

T1 sequence (Q92804 whole entry): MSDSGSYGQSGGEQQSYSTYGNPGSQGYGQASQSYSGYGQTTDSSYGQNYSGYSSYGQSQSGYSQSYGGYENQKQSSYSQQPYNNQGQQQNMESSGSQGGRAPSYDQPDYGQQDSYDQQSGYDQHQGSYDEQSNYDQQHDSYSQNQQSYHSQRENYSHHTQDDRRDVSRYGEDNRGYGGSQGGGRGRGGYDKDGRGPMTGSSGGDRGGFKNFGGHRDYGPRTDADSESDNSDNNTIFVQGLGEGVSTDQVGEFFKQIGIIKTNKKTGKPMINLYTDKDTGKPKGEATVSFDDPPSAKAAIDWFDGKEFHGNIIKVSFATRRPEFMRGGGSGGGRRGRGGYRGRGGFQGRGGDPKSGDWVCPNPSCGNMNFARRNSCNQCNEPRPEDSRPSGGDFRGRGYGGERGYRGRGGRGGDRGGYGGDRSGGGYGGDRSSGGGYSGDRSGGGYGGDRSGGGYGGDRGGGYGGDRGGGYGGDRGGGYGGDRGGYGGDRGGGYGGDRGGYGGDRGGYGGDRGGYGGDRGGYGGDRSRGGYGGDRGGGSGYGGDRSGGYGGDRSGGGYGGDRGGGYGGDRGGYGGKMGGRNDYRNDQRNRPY

B1: His-tagged full-length NOP58 (natural protein, human, UniProt Q9Y2X3 1-529, looked up)
chain: MLVLFETSVGYAIFKVLNEKKLQEVDSLWKEFETPEKANKIVKLKHFEKFQDTAEALAAFTALMEGKINKQLKKVLKKIVKEAHEPLAVADAKLGGVIKEKLNLSCIHSPVVNELMRGIRSQMDGLIPGVEPREMAAMCLGLAHSLSRYRLKFSADKVDTMIVQAISLLDDLDKELNNYIMRCREWYGWHFPELGKIISDNLTYCKCLQKVGDRKNYASAKLSELLPEEVEAEVKAAAEISMGTEVSEEDICNILHLCTQVIEISEYRTQLYEYLQNRMMAIAPNVTVMVGELVGARLIAHAGSLLNLAKHAASTVQILGAEKALFRALKSRRDTPKYGLIYHASLVGQTSPKHKGKISRMLAAKTVLAIRYDAFGEDSSSAMGVENRAKLEARLRTLEDRGIRKISGTGKALAKTEKYEHKSEVKTYDPSGDSTLPTCSKKRKIEQVDKEDEITEKKAKKAKIKVKVEEEEEEKVAEEEETSVKKKKKRGKKKHIKEEPLSEEEPCTSTAIASPEKKKKKKKKRENED
notes: NOP58, human, full length, cloned into pET-28a; also called His-NOP58; source: E. coli BL21, purified (Ni-NTA)
binding result: binds

From article PMC10657414, “LncRNA INHEG promotes glioma stem cell maintenance and tumorigenicity through regulating rRNA 2’-O-methylation” (Nature Communications, 2023)
